The source of these data is publication doi:10.1101/2020.10.19.346148.

One series has as its target DNA-PKcs;Ku70;Ku80 (human? (HeLa cells);human?;human?, UniProt P78527;P12956;P13010 1-4128;1-609;1-732, ||). The series can be described thus: cryo-EM structure.
The target in a further series is DNA-PKcs (human? (HeLa cells), UniProt P78527 1-4128). The series can be described thus: cryo-EM structure.
DNA-PKcs, sequence (P78527 whole entry): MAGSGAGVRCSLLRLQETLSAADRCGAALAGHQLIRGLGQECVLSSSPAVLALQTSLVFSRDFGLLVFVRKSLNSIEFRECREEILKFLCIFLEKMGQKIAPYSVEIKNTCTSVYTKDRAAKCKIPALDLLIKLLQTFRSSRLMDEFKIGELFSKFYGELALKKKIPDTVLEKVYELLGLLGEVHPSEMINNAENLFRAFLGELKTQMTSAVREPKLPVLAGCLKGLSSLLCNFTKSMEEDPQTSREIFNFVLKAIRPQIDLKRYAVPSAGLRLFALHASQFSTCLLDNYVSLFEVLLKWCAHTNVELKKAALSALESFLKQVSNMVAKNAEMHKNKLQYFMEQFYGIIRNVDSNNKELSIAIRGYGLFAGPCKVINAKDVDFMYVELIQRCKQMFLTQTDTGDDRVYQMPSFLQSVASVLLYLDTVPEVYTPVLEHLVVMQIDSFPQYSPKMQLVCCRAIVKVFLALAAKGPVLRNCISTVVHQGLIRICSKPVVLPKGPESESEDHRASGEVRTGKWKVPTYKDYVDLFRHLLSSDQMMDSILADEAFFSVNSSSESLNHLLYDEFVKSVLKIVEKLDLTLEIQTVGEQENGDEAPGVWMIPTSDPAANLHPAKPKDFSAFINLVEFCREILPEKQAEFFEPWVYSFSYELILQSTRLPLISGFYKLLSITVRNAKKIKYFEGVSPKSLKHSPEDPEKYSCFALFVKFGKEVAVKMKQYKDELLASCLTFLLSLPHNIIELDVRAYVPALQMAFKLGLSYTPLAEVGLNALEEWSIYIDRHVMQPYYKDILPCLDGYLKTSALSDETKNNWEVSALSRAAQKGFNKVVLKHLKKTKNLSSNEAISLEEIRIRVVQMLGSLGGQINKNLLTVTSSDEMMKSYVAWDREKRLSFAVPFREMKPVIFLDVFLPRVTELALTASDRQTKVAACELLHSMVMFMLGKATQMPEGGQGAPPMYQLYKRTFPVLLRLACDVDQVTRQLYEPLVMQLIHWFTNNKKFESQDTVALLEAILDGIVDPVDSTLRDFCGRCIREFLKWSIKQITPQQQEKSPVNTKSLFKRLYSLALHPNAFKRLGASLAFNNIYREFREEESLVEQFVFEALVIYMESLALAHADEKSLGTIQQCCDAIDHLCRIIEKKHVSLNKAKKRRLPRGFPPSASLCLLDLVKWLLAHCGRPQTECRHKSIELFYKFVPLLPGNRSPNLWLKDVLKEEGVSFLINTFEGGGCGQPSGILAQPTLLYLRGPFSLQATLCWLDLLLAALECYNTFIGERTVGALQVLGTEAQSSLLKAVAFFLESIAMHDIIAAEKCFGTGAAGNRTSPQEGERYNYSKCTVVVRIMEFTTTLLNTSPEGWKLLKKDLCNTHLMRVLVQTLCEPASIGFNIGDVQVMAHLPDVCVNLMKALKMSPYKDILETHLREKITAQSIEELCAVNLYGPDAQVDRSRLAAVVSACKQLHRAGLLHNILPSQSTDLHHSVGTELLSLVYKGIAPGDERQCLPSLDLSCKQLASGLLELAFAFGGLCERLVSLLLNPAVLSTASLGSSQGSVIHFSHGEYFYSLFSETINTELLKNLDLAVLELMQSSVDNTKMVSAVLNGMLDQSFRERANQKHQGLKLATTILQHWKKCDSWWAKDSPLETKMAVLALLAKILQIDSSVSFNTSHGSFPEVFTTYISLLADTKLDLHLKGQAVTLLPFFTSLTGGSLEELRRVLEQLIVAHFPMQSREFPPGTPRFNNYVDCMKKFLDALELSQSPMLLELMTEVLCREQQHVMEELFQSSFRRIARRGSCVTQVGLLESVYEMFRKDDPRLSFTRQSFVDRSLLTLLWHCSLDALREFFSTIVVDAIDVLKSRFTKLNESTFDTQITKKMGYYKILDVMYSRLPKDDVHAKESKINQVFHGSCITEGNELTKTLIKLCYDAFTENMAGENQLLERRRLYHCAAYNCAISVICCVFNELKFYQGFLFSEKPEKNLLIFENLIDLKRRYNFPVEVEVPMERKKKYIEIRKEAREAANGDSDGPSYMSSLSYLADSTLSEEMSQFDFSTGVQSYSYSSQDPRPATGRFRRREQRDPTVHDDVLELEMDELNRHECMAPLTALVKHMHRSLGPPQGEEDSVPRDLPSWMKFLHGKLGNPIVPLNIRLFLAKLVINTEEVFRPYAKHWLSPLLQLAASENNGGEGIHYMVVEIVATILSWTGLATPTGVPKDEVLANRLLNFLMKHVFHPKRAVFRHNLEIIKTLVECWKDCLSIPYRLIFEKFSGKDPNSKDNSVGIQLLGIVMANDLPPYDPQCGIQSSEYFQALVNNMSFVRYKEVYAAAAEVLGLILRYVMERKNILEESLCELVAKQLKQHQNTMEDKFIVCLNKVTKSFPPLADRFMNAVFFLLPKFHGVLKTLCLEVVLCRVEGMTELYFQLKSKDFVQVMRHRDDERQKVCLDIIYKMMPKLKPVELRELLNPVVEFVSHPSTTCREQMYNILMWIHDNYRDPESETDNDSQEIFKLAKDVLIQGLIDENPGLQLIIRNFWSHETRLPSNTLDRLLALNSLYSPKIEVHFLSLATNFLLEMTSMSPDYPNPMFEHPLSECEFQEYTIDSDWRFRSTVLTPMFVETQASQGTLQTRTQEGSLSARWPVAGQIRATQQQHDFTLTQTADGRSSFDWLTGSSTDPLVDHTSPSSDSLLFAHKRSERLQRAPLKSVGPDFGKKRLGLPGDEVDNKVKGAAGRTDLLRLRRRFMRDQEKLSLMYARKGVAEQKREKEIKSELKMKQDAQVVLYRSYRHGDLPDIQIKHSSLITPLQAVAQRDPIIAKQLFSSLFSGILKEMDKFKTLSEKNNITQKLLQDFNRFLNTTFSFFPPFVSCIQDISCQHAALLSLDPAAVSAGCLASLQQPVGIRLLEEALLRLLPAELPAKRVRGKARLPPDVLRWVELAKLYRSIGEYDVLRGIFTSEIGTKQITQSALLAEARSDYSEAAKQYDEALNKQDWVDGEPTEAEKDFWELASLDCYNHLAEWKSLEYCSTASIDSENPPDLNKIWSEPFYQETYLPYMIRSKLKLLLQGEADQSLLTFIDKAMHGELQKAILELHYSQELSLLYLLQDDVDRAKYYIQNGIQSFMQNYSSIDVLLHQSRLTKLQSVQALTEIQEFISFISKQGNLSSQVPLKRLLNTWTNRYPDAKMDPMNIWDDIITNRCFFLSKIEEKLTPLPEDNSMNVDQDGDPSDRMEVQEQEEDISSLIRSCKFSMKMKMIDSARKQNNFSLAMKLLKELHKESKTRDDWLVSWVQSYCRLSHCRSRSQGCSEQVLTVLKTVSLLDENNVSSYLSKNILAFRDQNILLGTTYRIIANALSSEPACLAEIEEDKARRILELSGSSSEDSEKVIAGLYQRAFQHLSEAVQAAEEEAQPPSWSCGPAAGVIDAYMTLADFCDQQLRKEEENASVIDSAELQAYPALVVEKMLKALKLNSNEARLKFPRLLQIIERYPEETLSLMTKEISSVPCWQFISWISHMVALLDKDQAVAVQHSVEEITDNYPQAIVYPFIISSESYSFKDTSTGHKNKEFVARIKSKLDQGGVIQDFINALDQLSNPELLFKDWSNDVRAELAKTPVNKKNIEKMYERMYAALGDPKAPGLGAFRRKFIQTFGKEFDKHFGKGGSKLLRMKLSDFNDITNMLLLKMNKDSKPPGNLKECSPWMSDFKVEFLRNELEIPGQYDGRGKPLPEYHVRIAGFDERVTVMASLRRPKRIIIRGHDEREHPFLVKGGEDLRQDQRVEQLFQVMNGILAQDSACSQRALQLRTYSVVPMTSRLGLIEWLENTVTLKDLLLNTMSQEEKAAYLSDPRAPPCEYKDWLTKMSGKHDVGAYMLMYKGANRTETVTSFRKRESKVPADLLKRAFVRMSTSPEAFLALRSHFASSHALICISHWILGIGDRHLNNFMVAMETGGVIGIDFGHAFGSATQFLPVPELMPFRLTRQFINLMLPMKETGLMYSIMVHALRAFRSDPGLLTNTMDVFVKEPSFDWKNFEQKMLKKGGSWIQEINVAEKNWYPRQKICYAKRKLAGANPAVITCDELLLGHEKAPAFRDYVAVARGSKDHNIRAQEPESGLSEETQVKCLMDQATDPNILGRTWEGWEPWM

B1: 40 bp blunt DNA with two internal nicks (dsDNA)
DNA 1: GCATGCTCTACTGCTTCGATATCG
DNA 2: AAGCAGTAGAGCATGC
DNA 3: GCATGCTCTACTGCTTCGATATCG
DNA 4: AAGCAGTAGAGCATGC
As for B1, the binding result with DNA-PKcs;Ku70;Ku80 and with DNA-PKcs was “binds” in each case.
